Assay results from PMC3046144.

Target: H5N1 A/Vietnam/1203/2004 HA1 (1-330) protein from 293 Flp-In cells (influenza A virus A/Vietnam/1203/2004 (H5N1))
Test: SEC

H5N1 A/Vietnam/1203/2004 HA1 (1-330) protein from 293 Flp-In cells (domain or fragment)
stoichiometry N: 3
